The text below walks through data of patent US20090022728A1 (RINAT NEUROSCIENCE, published 2009).

As usually defined, the Kd is a measure of binding affinity in units of concentration. The low end stands for higher affinity, the high end for lower affinity. The term koff denotes a measure of how fast the partners let go of each other. Low readings indicate slow dissociation, high ones fast dissociation. In general, kon refers to the rate constant with which the complex forms. Higher therefore signals faster complex formation.

Where no end group is shown, it is not given here.

Experiment [1] deals with T1, biotinylated Aβ1-42 peptide (biotinylated (N-biotinylated in Example 7)).
T1 construct: captured on streptavidin chip; also called N-biotinylated Aβ1-42
As to the kind of experiment: SPR, Fab over biotinylated peptide on streptavidin chip. For orientation: In SPR one partner is held on a chip, and binding of the other changes the refractive index at the surface.

Experiment [2] concerns the target T2, biotinylated Aβ22-37 peptide (also: biotinylated, site not given here).
T2 peptide: EDVGSNKGAIIGLMVG
The description is as above.

The target in experiment [3] is T3, biotinylated Aβ1-40 peptide (biotinylated (N-biotinylated in Example 7)).
T3 construct: captured on streptavidin (SA) chip; also called Biotinylated Aβ peptide 1-40; Aβ1-40 on SA chip
The description is as above.

The target of experiment [4] is T4, Aβ1-40 peptide.
T4 construct: synthetic peptide, not biotinylated; also called 1-40 (WT); beta amyloid 1-40
As to the kind of experiment: ELISA, nonbiotinylated peptide on plate. The method, then:
(§1) ELISA was used for measuring binding of antibody 6G and variants to nonbiotinylated Aβ peptides. NUNC maxisorp plates were coated with 2.5 ug/ml of Aβ peptides in PBS pH 7.4 for more than 1 hour at 4° C. Plates were blocked with 1% BSA in PBS buffer pH 7.4. Primary antibody (from cell supernatants, serum containing anti-Aβ antibody, or purified full antibody or Fabs at desired dilution) was incubated with the immobilized Aβ peptides for 1 h at room temperature. After washing, the plates were incubated with secondary antibody, a HRP conjugated goat anti-human kappa chain antibody (MP Biomedicals, 55233) at 1:5000 dilution. After washing, bound secondary antibody was measured by adding TMB substrate (KPL, 50-76-02, 50-65-02). The HRP reaction was stopped by adding 1M phosphoric acid and absorbance at 450 nm was measured.
(§2) All amino acid substitutions of the variants shown in Table 8 are described relative to the sequence of 6G. Binding was determined by ELISA described above with nonbiotinylated Aβ₁₋₄₀ or Aβ₁₋₄₂ immobilized on the surface of an ELISA plate.

The target in experiment [5] is T5, Aβ1-42 peptide.
T5 construct: also called 1-42 (WT)
As to the kind of experiment: ELISA, nonbiotinylated peptide on plate. The method, then:
as §1, §2

The target of experiment [6] is T4, Aβ1-40 peptide. As to the kind of experiment: SPR, mAb on CM5 chip, peptide flowed. How it is done:
Affinities of 9TL monoclonal antibody were determined using the BIAcore3000™ surface plasmon resonance (SPR) system (BIAcore, INC, Piscaway N.J.). […] CM5 chips were activated with N-ethyl-N′-(3-dimethylaminopropyl)-carbodiimide hydrochloride (EDC) and N-hydroxysuccinimide (NHS) according to the supplier's instructions. Antibody 9TL or its variants was diluted into 10 mM sodium acetate pH 4.0 or 5.0 and injected over the activated chip at a concentration of 0.005 mg/mL. Using variable flow time across the individual chip channels, a range of antibody density was achieved: 1000-2000 or 2000-3000 response units (RU). The chip was blocked with ethanolamine. […] HBS-EP buffer (0.01M HEPES, pH 7.4, 0.15 M NaCl, 3 mM EDTA, 0.005% Surfactant P20) was used as running buffer for all the BIAcore assays. […] Kinetic association rates (kₒₙ) and dissociation rates (koff) were obtained simultaneously by fitting the data to a 1:1 Langmuir binding model (Karlsson, R. Roos, H. Fagerstam, L. Petersson, B. (1994). Methods Enzymology 6. 99-110) using the BIAevaluation program. Equilibrium dissociation constant (KD) values were calculated as koff/kₒₙ.

T5 sequence (peptide, as listed by the source): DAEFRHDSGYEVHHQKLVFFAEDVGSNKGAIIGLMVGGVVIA
T3 sequence (peptide, as listed by the source): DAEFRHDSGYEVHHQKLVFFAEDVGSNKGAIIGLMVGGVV

B1: 6G Fab fragment (Fab, V domains shown)
VH: QVQLVQSGAEVKKPGASVKVSCKASGYTFTTYAIHWVRQAPGQGLEWMGFTSPYSGVSNYNQKFKGRVTMTRDTSTSTVYMELSSLRSEDTAVYYCARFDNYDRGYVRDYWGQGTLVTVS
VL: DIVMTQSPDSLAVSLGERATINCRASESVDNDRISFLNWYQQKPGQPPKLLIYAATKQGTGVPDRFSGSGSGTDFTLTISSLQAEDVAVYYCQQSKEFPWSFGGGTKVEIKR
notes: Fab from E. coli with human IgG2 CH1 (P01859) and human kappa constant domain (CAA09181)
B1: the values for the Kd in experiment [1], in experiment [2] and in experiment [3] were 80 nM, 11 nM and 2 nM, respectively. Besides, the off-rate constant (koff) is 0.0016 s⁻¹ in experiment [1], 0.0039 s⁻¹ in experiment [2] and 0.0007 s⁻¹ in experiment [3]. For the same molecule, the kon in experiment [1] is 18000 M⁻¹ s⁻¹; in experiment [2], 360000 M⁻¹ s⁻¹; in experiment [3] it was 300000 M⁻¹ s⁻¹.

B2: 6G light chain variant 2H (Q93K) (antibody, V domains shown)
VH: QVQLVQSGAEVKKPGASVKVSCKASGYTFTTYAIHWVRQAPGQGLEWMGFTSPYSGVSNYNQKFKGRVTMTRDTSTSTVYMELSSLRSEDTAVYYCARFDNYDRGYVRDYWGQGTLVTVS
VL: DIVMTQSPDSLAVSLGERATINCRASESVDNDRISFLNWYQQKPGQPPKLLIYAATKQGTGVPDRFSGSGSGTDFTLTISSLQAEDVAVYYCKQSKEFPWSFGGGTKVEIKR
For B2, the results for the “A450 ELISA” value in experiment [4] and in experiment [5] were 0.07 A450 and 0.13 A450, respectively.

B3: 6G heavy chain variant 11D (Y102M) (antibody, V domains shown)
VH: QVQLVQSGAEVKKPGASVKVSCKASGYTFTTYAIHWVRQAPGQGLEWMGFTSPYSGVSNYNQKFKGRVTMTRDTSTSTVYMELSSLRSEDTAVYYCARFDNMDRGYVRDYWGQGTLVTVS
VL: DIVMTQSPDSLAVSLGERATINCRASESVDNDRISFLNWYQQKPGQPPKLLIYAATKQGTGVPDRFSGSGSGTDFTLTISSLQAEDVAVYYCQQSKEFPWSFGGGTKVEIKR
As to B3, the figures for the “A450 ELISA” value in experiment [4] and in experiment [5] were 0.29 A450 and 0.24 A450, respectively.

B4: 6G light chain variant 5H (E97R) (antibody, V domains shown)
VH: QVQLVQSGAEVKKPGASVKVSCKASGYTFTTYAIHWVRQAPGQGLEWMGFTSPYSGVSNYNQKFKGRVTMTRDTSTSTVYMELSSLRSEDTAVYYCARFDNYDRGYVRDYWGQGTLVTVS
VL: DIVMTQSPDSLAVSLGERATINCRASESVDNDRISFLNWYQQKPGQPPKLLIYAATKQGTGVPDRFSGSGSGTDFTLTISSLQAEDVAVYYCQQSKRFPWSFGGGTKVEIKR
B4: the “A450 ELISA” value in experiment [4] worked out at 2.6 A450; in experiment [5], 0.85 A450.

B5: 6G light chain variant 6C (E97G) (antibody, V domains shown)
VH: QVQLVQSGAEVKKPGASVKVSCKASGYTFTTYAIHWVRQAPGQGLEWMGFTSPYSGVSNYNQKFKGRVTMTRDTSTSTVYMELSSLRSEDTAVYYCARFDNYDRGYVRDYWGQGTLVTVS
VL: DIVMTQSPDSLAVSLGERATINCRASESVDNDRISFLNWYQQKPGQPPKLLIYAATKQGTGVPDRFSGSGSGTDFTLTISSLQAEDVAVYYCQQSKGFPWSFGGGTKVEIKR
For the molecule B5, the “A450 ELISA” value in experiment [4] and in experiment [5] was 0.05 A450 in each case.

B6: 6G heavy chain variant 10G (Y102I) (antibody, V domains shown)
VH: QVQLVQSGAEVKKPGASVKVSCKASGYTFTTYAIHWVRQAPGQGLEWMGFTSPYSGVSNYNQKFKGRVTMTRDTSTSTVYMELSSLRSEDTAVYYCARFDNIDRGYVRDYWGQGTLVTVS
VL: DIVMTQSPDSLAVSLGERATINCRASESVDNDRISFLNWYQQKPGQPPKLLIYAATKQGTGVPDRFSGSGSGTDFTLTISSLQAEDVAVYYCQQSKEFPWSFGGGTKVEIKR
Regarding B6, the results for the “A450 ELISA” value in experiment [4] and in experiment [5] were 0.63 A450 and 0.22 A450, respectively.

B7: 6G light chain variant 6D (E97T) (antibody, V domains shown)
VH: QVQLVQSGAEVKKPGASVKVSCKASGYTFTTYAIHWVRQAPGQGLEWMGFTSPYSGVSNYNQKFKGRVTMTRDTSTSTVYMELSSLRSEDTAVYYCARFDNYDRGYVRDYWGQGTLVTVS
VL: DIVMTQSPDSLAVSLGERATINCRASESVDNDRISFLNWYQQKPGQPPKLLIYAATKQGTGVPDRFSGSGSGTDFTLTISSLQAEDVAVYYCQQSKTFPWSFGGGTKVEIKR
In the case of B7, the “A450 ELISA” value in experiment [4] amounted to 2.41 A450; in experiment [5], 1.34 A450.

B8: 6G light chain variant 8G (E97V) (antibody, V domains shown)
VH: QVQLVQSGAEVKKPGASVKVSCKASGYTFTTYAIHWVRQAPGQGLEWMGFTSPYSGVSNYNQKFKGRVTMTRDTSTSTVYMELSSLRSEDTAVYYCARFDNYDRGYVRDYWGQGTLVTVS
VL: DIVMTQSPDSLAVSLGERATINCRASESVDNDRISFLNWYQQKPGQPPKLLIYAATKQGTGVPDRFSGSGSGTDFTLTISSLQAEDVAVYYCQQSKVFPWSFGGGTKVEIKR
Regarding B8, the “A450 ELISA” value in experiment [4] is 2.6 A450; in experiment [5], 0.9 A450.

B9: 6G light chain variant 3A (Q93P) (antibody, V domains shown)
VH: QVQLVQSGAEVKKPGASVKVSCKASGYTFTTYAIHWVRQAPGQGLEWMGFTSPYSGVSNYNQKFKGRVTMTRDTSTSTVYMELSSLRSEDTAVYYCARFDNYDRGYVRDYWGQGTLVTVS
VL: DIVMTQSPDSLAVSLGERATINCRASESVDNDRISFLNWYQQKPGQPPKLLIYAATKQGTGVPDRFSGSGSGTDFTLTISSLQAEDVAVYYCPQSKEFPWSFGGGTKVEIKR
As to B9, the “A450 ELISA” value is 0.08 A450 in experiment [4] and 0.13 A450 in experiment [5].

B10: antibody 9TL (full monoclonal antibody) (antibody, human IgG2, kappa, V domains shown)
VH: QVQLVQSGAEVKKPGASVKVSCKASGYYTEAYYIHWVRQAPGQGLEWMGRIDPATGNTKYAPRLQDRVTMTRDTSTSTVYMELSSLRSEDTAVYYCASLYSLPVYWGQGTTVTVSS
VL: DVVMTQSPLSLPVTLGQPASISCKSSQSLLYSDAKTYLNWFQQRPGQSPRRLIYQISRLDPGVPDRFSGSGSGTDFTLKISRVEAEDVGVYYCLQGTHYPVLFGQGTRLEIKR
notes: human IgG2a constant region with A330P331 to S330S331; human kappa light chain; also called 9TL mAb
In experiment [6], B10 returned a Kd of 0.9 nM, a dissociation rate constant (koff) of 0.000389 s⁻¹ and a kon of 425000 M⁻¹ s⁻¹.
